From patent publication US20230212587A1, “Mutant Hydroxyphenylpyruvate Dioxygenase Polypeptide, Encoding Gene Thereof and Use Therefor” (Beijing Dabeinong Biotechnology Co., Ltd., priority 2019, published 2023)

System: Arabidopsis thaliana T1 plants
Test: Topramezone tolerance of transgenic Arabidopsis thaliana T1 plants (pesticide damage grade by bleached leaf area, score, resistance evaluation)
Type: in vivo
Conditions: HPPDs from ecotypes of Triticum aestivum; for Classification and statistics of pesticide damage grade: Grade 0 / Classification and statistics of pesticide damage grade: Grade 1 / Classification and statistics of pesticide damage grade: Grade 2 / Classification and statistics of pesticide damage grade: Grade 3: number of plants
How it was run: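 Eighteen days after sowing, wild-type and HPPD-transgenic T1 Arabidopsis receive a topramezone spray at 1×, 2× or 4× field rate (25–100 g ai/ha) or water. Seven days later each plant is graded by its proportion of bleached leaf area.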

| Molecule | Resistance evaluation (topramezone 25 g ai/ha (1x)) | Scores (topramezone 25 g ai/ha (1x)) | Classification and statistics of pesticide damage grade: Grade 0 (topramezone 25 g ai/ha (1x)) | Classification and statistics of pesticide damage grade: Grade 1 (topramezone 25 g ai/ha (1x)) | Classification and statistics of pesticide damage grade: Grade 2 (topramezone 25 g ai/ha (1x)) | Classification and statistics of pesticide damage grade: Grade 3 (topramezone 25 g ai/ha (1x)) | Resistance evaluation (topramezone 100 g ai/ha (4x)) | Scores (topramezone 100 g ai/ha (4x)) | Classification and statistics of pesticide damage grade: Grade 0 (topramezone 100 g ai/ha (4x)) | Classification and statistics of pesticide damage grade: Grade 1 (topramezone 100 g ai/ha (4x)) | Classification and statistics of pesticide damage grade: Grade 2 (topramezone 100 g ai/ha (4x)) | Classification and statistics of pesticide damage grade: Grade 3 (topramezone 100 g ai/ha (4x)) |
| --- | --- | --- | --- | --- | --- | --- | --- | --- | --- | --- | --- | --- |
| TaHPPD2-02: native HPPD of Triticum aestivum ecotype 2, UniProt Q45FE8, SEQ ID NO: 183 (protein, listed as Triticum aestivum, TaHPPD2 Amino Acid Sequence) MPPTPTTPAATGAGAAAAVTPEHARPRRMVRFNPRSDRFHTLSFHHVEFWCADAASAAGRFAFALGAPLAARSDLSTGNSVHASQLLRSGNLAFLFTAPYANGCDAATASLPSFSADAARRFSADHGLAVRSIALRVADAAEAFRASVDGGARPAFSPVDLGRGFGFAEVELYGDVVLRFVSHPDDTDVPFLPGFEGVSNPDAVDYGLTRFDHVVGNVPELAPAAAYVAGFAGFHEFAEFTTEDVGTAESGLNSMVLANNSEGVLLPLNEPVHGTKRRSQIQTFLEHHGGSGVQHIAVASSDVLRTLREMRARSAMGGFDFLPPRCRKYYEGVRRIAGDVLSEAQIKECQELGVLVDRDDQGVLLQIFTKPVGDRPTLFLEMIQRIGCMEKDERGEEYQKGGCGGFGKGNFSELFKSIEDYEKSLEAKQSAAVQGS | non-resistant (non-resistant plants (scores 68-100)) | 100 | 0 | 0 | 0 | 16 | non-resistant (non-resistant plants (scores 68-100)) | 100 | 0 | 0 | 0 | 16 |
| TaHPPD2m-F372A-02: Triticum aestivum ecotype 2 HPPD mutant F372A, SEQ ID NO: 186 (protein, TaHPPD2m-F372A Amino Acid Sequence) MPPTPTTPAATGAGAAAAVTPEHARPRRMVRFNPRSDRFHTLSFHHVEFWCADAASAAGRFAFALGAPLAARSDLSTGNSVHASQLLRSGNLAFLFTAPYANGCDAATASLPSFSADAARRFSADHGLAVRSIALRVADAAEAFRASVDGGARPAFSPVDLGRGFGFAEVELYGDVVLRFVSHPDDTDVPFLPGFEGVSNPDAVDYGLTRFDHVVGNVPELAPAAAYVAGFAGFHEFAEFTTEDVGTAESGLNSMVLANNSEGVLLPLNEPVHGTKRRSQIQTFLEHHGGSGVQHIAVASSDVLRTLREMRARSAMGGFDFLPPRCRKYYEGVRRIAGDVLSEAQIKECQELGVLVDRDDQGVLLQIATKPVGDRPTLFLEMIQRIGCMEKDERGEEYQKGGCGGFGKGNFSELFKSIEDYEKSLEAKQSAAVQGS | highly resistant (highly resistant plants (scores 0-15)) | 0 | 16 | 0 | 0 | 0 | moderately resistant (moderately resistant plants (scores 16-33)) | 17 | 8 | 8 | 0 | 0 |
| TaHPPD3-02: native HPPD of Triticum aestivum ecotype 3, UniProt A0A3B6PKV0, SEQ ID NO: 189 (protein, listed as Triticum aestivum, TaHPPD3 Amino Acid Sequence) MPPTPTTPAATGAAAAAAVTPEHARPRRMVRFNPRSDRFHTLAFHHVEFWCADAASAAGRFAFALGAPLAARSDLSTGNSVHASQLLRSGNLAFLFTAPYANGCDAATASLPSFSADAARRFSADHGLAVRSIALRVADAAEAFRASVDGGARPAFSPVDLGRGFGFAEVELYGDVVLRFVSHPDDTDVPFLPGFEGVSNPDAVDYGLTRFDHVVGNVPELAPAAAYVAGFAGFHEFAEFTTEDVGTAESGLNSMVLANNSEGVLLPLNEPVHGTKRRSQIQTFLEHHGGPGVQHIAVASSDVLRTLREMRARSAMGGFDFLPPPLPKYYEGVRRIAGDVLSEAQIKECQELGVLVDRDDQGVLLQIFTKPVGDRPTLFLEMIQRIGCMEKDERGEEYQKGGCGGFGKGNFSELFKSIEDYEKSLEAKQSAAVQAS | non-resistant (non-resistant plants (scores 68-100)) | 100 | 0 | 0 | 0 | 16 | non-resistant (non-resistant plants (scores 68-100)) | 100 | 0 | 0 | 0 | 16 |
| TaHPPD3m-F372A-02: Triticum aestivum ecotype 3 HPPD mutant F372A, SEQ ID NO: 192 (protein, TaHPPD3m-F372A Amino Acid Sequence) MPPTPTTPAATGAAAAAAVTPEHARPRRMVRFNPRSDRFHTLAFHHVEFWCADAASAAGRFAFALGAPLAARSDLSTGNSVHASQLLRSGNLAFLFTAPYANGCDAATASLPSFSADAARRFSADHGLAVRSIALRVADAAEAFRASVDGGARPAFSPVDLGRGFGFAEVELYGDVVLRFVSHPDDTDVPFLPGFEGVSNPDAVDYGLTRFDHVVGNVPELAPAAAYVAGFAGFHEFAEFTTEDVGTAESGLNSMVLANNSEGVLLPLNEPVHGTKRRSQIQTFLEHHGGPGVQHIAVASSDVLRTLREMRARSAMGGFDFLPPPLPKYYEGVRRIAGDVLSEAQIKECQELGVLVDRDDQGVLLQIATKPVGDRPTLFLEMIQRIGCMEKDERGEEYQKGGCGGFGKGNFSELFKSIEDYEKSLEAKQSAAVQAS | highly resistant (highly resistant plants (scores 0-15)) | 0 | 16 | 0 | 0 | 0 | highly resistant (highly resistant plants (scores 0-15)) | 8 | 12 | 4 | 0 | 0 |
| TaHPPD4-02: native HPPD of Triticum aestivum ecotype 4, UniProt A0A3B6NLC6, SEQ ID NO: 195 (protein, listed as Triticum aestivum, TaHPPD4 Amino Acid Sequence) MPPTPTTPAATGAAAVTPEHARPRRMVRFNPRSDRFHTLAFHHVEFWCADAASAAGRFAFALGAPLAARSDLSTGNSVHASQLLRSGNLAFLFTAPYANGCDAATASLPSFSADAARQFSADHGLAVRSIALRVADAAEAFRASVDGGARPAFSPVDLGRGFGFAEVELYGDVVLRFVSHPDGRDVPFLPGFEGVSNPDAVDYGLTRFDHVVGNVPELAPAAAYVAGFTGFHEFAEFTTEDVGTAESGLNSMVLANNSEGVLLPLNEPVHGTKRRSQIQTFLEHHGGSGVQHIAVASSDVLRTLREMRARSAMGGFDFLPPPLPKYYEGVRRIAGDVLSEAQIKECQELGVLVDRDDQGVLLQIFTKPVGDRPTLFLEMIQRIGCMEKDERGEEYQKGGCGGFGKGNFSELFKSIEDYEKSLEAKQSAAVQGS | non-resistant (non-resistant plants (scores 68-100)) | 92 | 0 | 0 | 4 | 12 | non-resistant (non-resistant plants (scores 68-100)) | 100 | 0 | 0 | 0 | 16 |
| TaHPPD4m-F372A-02: Triticum aestivum ecotype 4 HPPD mutant F372A, SEQ ID NO: 198 (protein, TaHPPD4m-F372A Amino Acid Sequence) MPPTPTTPAATGAAAVTPEHARPRRMVRFNPRSDRFHTLAFHHVEFWCADAASAAGRFAFALGAPLAARSDLSTGNSVHASQLLRSGNLAFLFTAPYANGCDAATASLPSFSADAARQFSADHGLAVRSIALRVADAAEAFRASVDGGARPAFSPVDLGRGFGFAEVELYGDVVLRFVSHPDGRDVPFLPGFEGVSNPDAVDYGLTRFDHVVGNVPELAPAAAYVAGFTGFHEFAEFTTEDVGTAESGLNSMVLANNSEGVLLPLNEPVHGTKRRSQIQTFLEHHGGSGVQHIAVASSDVLRTLREMRARSAMGGFDFLPPPLPKYYEGVRRIAGDVLSEAQIKECQELGVLVDRDDQGVLLQIATKPVGDRPTLFLEMIQRIGCMEKDERGEEYQKGGCGGFGKGNFSELFKSIEDYEKSLEAKQSAAVQGS | highly resistant (highly resistant plants (scores 0-15)) | 0 | 16 | 0 | 0 | 0 | highly resistant (highly resistant plants (scores 0-15)) | 10 | 11 | 5 | 0 | 0 |
